Experimental data reported in PMC13600239.

Tests used:
[1] = target: Rmo2^HMA (integrated HMA domain of the barley tandem kinase protein Rmo2) (barley); assay: ITC; […]; 25°C; 20 mM HEPES pH 7.5, 150 mM NaCl; triplicate, […]
[2] = target: Rwt7^HMA-6His (wheat); assay: as above

Q: How did the Kd [1] turn out when “PBY2 (Magnaporthe oryzae effector) (natural protein)” was run?
A: Its Kd is 53.5 nM.

Q: Which Kd [2] does the source give for “PWT7 (Magnaporthe oryzae effector) (natural protein)” here?
A: The Kd was 2.92 nM.
